Measured values: patent publication US20050142135A1, “Agents and methods for modulating interactions between gonadotropin hormones and receptors” (University of Kentucky Research Foundation, priority 2003, published 2005)

How the values were obtained:
LHR^S582A (human) [1] = target: LHR^S582A (human) (UniProt P22888); experiment: cell-based or functional assay
LHR^V574A (human) [2] = target: LHR^V574A (human) (UniProt P22888); experiment: cell-based or functional assay
LHR^K583A (human) [3] = target: LHR^K583A (human) (UniProt P22888); experiment: 125I-hCG competition binding on HEK293 cells, Scatchard
Chain of LHR^K583A (human) (P22888 27-699, stated change not applied): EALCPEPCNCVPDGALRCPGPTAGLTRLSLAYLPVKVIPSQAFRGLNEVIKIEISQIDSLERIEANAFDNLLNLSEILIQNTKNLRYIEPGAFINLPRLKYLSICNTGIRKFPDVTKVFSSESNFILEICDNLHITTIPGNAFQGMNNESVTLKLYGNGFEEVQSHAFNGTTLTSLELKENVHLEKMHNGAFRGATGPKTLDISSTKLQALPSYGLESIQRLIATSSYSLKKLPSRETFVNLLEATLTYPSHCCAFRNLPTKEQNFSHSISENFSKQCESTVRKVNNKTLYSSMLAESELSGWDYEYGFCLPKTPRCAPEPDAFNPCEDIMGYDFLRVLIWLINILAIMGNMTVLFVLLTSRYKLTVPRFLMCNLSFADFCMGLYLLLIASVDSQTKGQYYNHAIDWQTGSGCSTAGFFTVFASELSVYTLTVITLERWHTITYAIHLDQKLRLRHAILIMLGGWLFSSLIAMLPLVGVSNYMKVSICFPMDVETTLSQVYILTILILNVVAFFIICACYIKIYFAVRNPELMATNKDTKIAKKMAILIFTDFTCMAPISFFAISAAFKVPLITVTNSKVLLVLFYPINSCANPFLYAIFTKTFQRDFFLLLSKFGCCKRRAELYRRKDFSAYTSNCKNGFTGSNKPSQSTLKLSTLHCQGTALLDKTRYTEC

[4] = target: LHR I^577A mutant (human) (UniProt P22888); experiment: 125I-hCG displacement / Scatchard; details: ligand
Chain of LHR I^577A mutant (human) (P22888 27-699, change not shown): as the sequence (P22888 27-699, stated change not applied) above

[5] = target: LHR K^573A mutant (human) (UniProt P22888); experiment: 125I-hCG displacement / Scatchard; details: ligand
Chain of LHR K^573A mutant (human) (P22888 27-699, change not shown): as the sequence (P22888 27-699, stated change not applied) above

[6] = target: LHR L^576A mutant (human) (UniProt P22888); experiment: 125I-hCG displacement / Scatchard; details: ligand
Chain of LHR L^576A mutant (human) (P22888 27-699, change not shown): as the sequence (P22888 27-699, stated change not applied) above

[7] = target: LHR N^581A mutant (human) (UniProt P22888); experiment: 125I-hCG displacement / Scatchard; details: ligand
Chain of LHR N^581A mutant (human) (P22888 27-699, change not shown): as the sequence (P22888 27-699, stated change not applied) above

[8] = target: LHR P^575A mutant (human) (UniProt P22888); experiment: 125I-hCG displacement / Scatchard; details: ligand
Chain of LHR P^575A mutant (human) (P22888 27-699, change not shown): as the sequence (P22888 27-699, stated change not applied) above

[9] = target: LHR T^578A mutant (human) (UniProt P22888); experiment: 125I-hCG displacement / Scatchard; details: ligand
Chain of LHR T^578A mutant (human) (P22888 27-699, change not shown): as the sequence (P22888 27-699, stated change not applied) above

[10] = target: LHR T^580A mutant (human) (UniProt P22888); experiment: 125I-hCG displacement / Scatchard; details: ligand
Chain of LHR T^580A mutant (human) (P22888 other isoform, or with tags, fused parts or gaps mutant): as the sequence (P22888 27-699, stated change not applied) above, with T576A counted along it

[11] = target: LHR V^579A mutant (human) (UniProt P22888); experiment: 125I-hCG displacement / Scatchard; details: ligand
Chain of LHR V^579A mutant (human) (P22888 27-699, stated change not applied): as the sequence (P22888 27-699, stated change not applied) above

LHR^K583A (human) [12] = target: LHR^K583A (human) (UniProt P22888); experiment: 125I-hCG displacement / Scatchard; details: ligand
LHR^S582A (human) [13] = target: LHR^S582A (human) (UniProt P22888); experiment: 125I-hCG displacement / Scatchard; details: ligand
LHR^V574A (human) [14] = target: LHR^V574A (human) (UniProt P22888); experiment: 125I-hCG displacement / Scatchard; details: ligand
human FSH (human) = human FSH (human) (UniProt P01215); experiment: photoaffinity labeling, SDS-PAGE autoradiograph

Chain of LHR^V574A (human) (P22888 27-699, stated change not applied): as above
Chain of LHR^S582A (human) (P22888 27-699, stated change not applied): as above

hCG (from UniProt P01215 25-116; P0DN86 21-165) (ligand)
IP1 (cpm) (LHR^S582A (human) [1]): 15100 cpm | IP1 maximum level, mutant/wild type (LHR^S582A (human) [1]): 1.09 | IP2 (cpm) (LHR^S582A (human) [1]): 900 cpm | IP2 maximum level, mutant/wild type (LHR^S582A (human) [1]): 1.29 | IP3 (cpm) (LHR^S582A (human) [1]): 386 cpm | IP3 maximum level, mutant/wild type (LHR^S582A (human) [1]): 1.38 | IPt (cpm) (LHR^S582A (human) [1]): 16200 cpm | IPt maximum level, mutant/wild type (LHR^S582A (human) [1]): 1.11 | IP1 (cpm) (LHR^V574A (human) [2]): 2110 cpm | IP1 maximum level, mutant/wild type (LHR^V574A (human) [2]): 0.15 | IP2 (cpm) (LHR^V574A (human) [2]): 180 cpm | IP2 maximum level, mutant/wild type (LHR^V574A (human) [2]): 0.25 | IP3 (cpm) (LHR^V574A (human) [2]): 80 cpm | IP3 maximum level, mutant/wild type (LHR^V574A (human) [2]): 0.39 | IPt (cpm) (LHR^V574A (human) [2]): 2230 cpm | IPt maximum level, mutant/wild type (LHR^V574A (human) [2]): 0.15 | fold improvement of binding affinity over wild type (LHR^K583A (human) [3]): 2 fold

hCG (from UniProt P01215 25-116; P0DN86 21-165)
Kd [4]: 0.746 nM | Kd [5]: 0.348 nM | Kd [6]: 0.43 nM | Kd [7]: 0.35 nM | Kd [8]: 0.277 nM | Kd [9]: 0.299 nM | Kd [10]: 0.623 nM | Kd [11]: 0.985 nM | Kd (LHR^K583A (human) [12]): 0.195 nM | Kd (LHR^S582A (human) [13]): 0.942 nM | Kd (LHR^V574A (human) [14]): 0.24 nM

^125I-FSHR^9-40F13Bpa (peptide)
percent of FSH labeled (human FSH (human)): > 50%
